# Assay results taken from PMC10160006 (Nature chemical biology, 2023).
# T1: EXT1-pGEn1 (human EXT1 residues 28-746 with N-terminal His8 and StrepII tag) (human, UniProt Q16394 28-746)
# T1 sequence (looked up): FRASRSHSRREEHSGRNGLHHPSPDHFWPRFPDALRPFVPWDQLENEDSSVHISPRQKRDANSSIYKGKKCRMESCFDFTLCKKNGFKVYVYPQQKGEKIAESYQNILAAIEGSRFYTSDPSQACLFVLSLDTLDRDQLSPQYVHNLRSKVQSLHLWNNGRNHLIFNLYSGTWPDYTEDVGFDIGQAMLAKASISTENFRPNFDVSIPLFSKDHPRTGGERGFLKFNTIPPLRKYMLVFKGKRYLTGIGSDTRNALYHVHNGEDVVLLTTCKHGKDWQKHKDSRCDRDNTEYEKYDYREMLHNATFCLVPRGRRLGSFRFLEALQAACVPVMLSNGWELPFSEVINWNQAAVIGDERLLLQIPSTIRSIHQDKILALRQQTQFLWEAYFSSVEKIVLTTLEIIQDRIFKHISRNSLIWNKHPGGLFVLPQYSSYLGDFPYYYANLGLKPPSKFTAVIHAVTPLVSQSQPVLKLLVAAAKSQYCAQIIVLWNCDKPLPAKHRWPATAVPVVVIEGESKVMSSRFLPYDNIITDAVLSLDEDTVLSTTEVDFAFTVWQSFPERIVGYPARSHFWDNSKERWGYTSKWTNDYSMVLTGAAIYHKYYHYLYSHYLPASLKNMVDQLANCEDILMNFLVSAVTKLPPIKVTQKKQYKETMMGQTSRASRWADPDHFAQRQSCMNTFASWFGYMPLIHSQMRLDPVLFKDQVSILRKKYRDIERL
# B1: human EXT1 (residues 28-746), fusion tags removed by TEV protease (enzyme, UniProt Q16394 28-746, looked up)
# chain: T1 sequence (looked up)
# modifications: NAG at Asn330
# B2: human EXT2 (residues 46-718), fusion tags removed by TEV protease (enzyme, UniProt Q93063 46-718, looked up)
# chain: WPHSIESSNDWNVEKRSIRDVPVVRLPADSPIPERGDLSCRMHTCFDVYRCGFNPKNKIKVYIYALKKYVDDFGVSVSNTISREYNELLMAISDSDYYTDDINRACLFVPSIDVLNQNTLRIKETAQAMAQLSRWDRGTNHLLFNMLPGGPPDYNTALDVPRDRALLAGGGFSTWTYRQGYDVSIPVYSPLSAEVDLPEKGPGPRQYFLLSSQVGLHPEYREDLEALQVKHGESVLVLDKCTNLSEGVLSVRKRCHKHQVFDYPQVLQEATFCVVLRGARLGQAVLSDVLQAGCVPVVIADSYILPFSEVLDWKRASVVVPEEKMSDVYSILQSIPQRQIEEMQRQARWFWEAYFQSIKAIALATLQIINDRIYPYAAISYEEWNDPPAVKWGSVSNPLFLPLIPPQSQGFTAIVLTYDRVESLFRVITEVSKVPSLSKLLVVWNNQNKNPPEDSLWPKIRVPLKVVRTAENKLSNRFFPYDEIETEAVLAIDDDIIMLTSDELQFGYEVWREFPDRLVGYPGRLHLWDHEMNKWKYESEWTNEVSMVLTGAAFYHKYFNYLYTYKMPGDIKNWVDAHMNCEDIAMNFLVANVTGKAVIKVTPRKKFKCPECTAIDGLSLDQTHMVERSECINKFASVFGTMPLKVVEHRADPVLYKDDFPEKLKSFPNIGSL
# modifications: N-glycan on Asn637
# B3: EXT2-pGEn2 (human EXT2 residues 46-718 with N-terminal His8, AviTag and GFP) (enzyme, UniProt Q93063 46-718, looked up)
# chain: B2 chain
# Legend:
# [1] = molecular target: B2; test: cryo-EM structure
# [2] = molecular target: B1; test: cryo-EM structure
# [3] = molecular target: T1, EXT1-pGEn1 (human EXT1 residues 28-746 …); test: SEC-MALS
binder,measurement,setting,value
B1,stoichiometry N,[1],1 EXT1:EXT2
B2,binding result,[2],binds
B3,binding result,[3],binds
